Columns and labels:
[1] = biological target: ctPrp43-HT (Hook-Turn mutant) (Chaetomium thermophilum? (printed C. …, UniProt G0RY84 1-764, R180G;F181G)); test: fluorescence anisotropy; AMPPNP (100-fold excess), 3 mM MgCl2; Fluorescence anisotropy: 25 mM Tris pH 7.5, 150 mM KCl, 3 mM MgCl2, 25 C, 0.1 uM RNA, 0.01-50 uM protein, 100-fold excess AMPPNP; details: protein: recombinant; tags: GST-tag removed; label: 5' 6-carboxyfluorescein; single strand
ctPrp43 = ctPrp43 (Chaetomium thermophilum? (printed C. …, UniProt G0RY84 1-764)); test: as above; details: protein: recombinant; tags: GST-tag removed; label: 5' 6-carboxyfluorescein; single strand
Sequence of ctPrp43 (Chaetomium thermophilum? (G0RY84 entry or part of it): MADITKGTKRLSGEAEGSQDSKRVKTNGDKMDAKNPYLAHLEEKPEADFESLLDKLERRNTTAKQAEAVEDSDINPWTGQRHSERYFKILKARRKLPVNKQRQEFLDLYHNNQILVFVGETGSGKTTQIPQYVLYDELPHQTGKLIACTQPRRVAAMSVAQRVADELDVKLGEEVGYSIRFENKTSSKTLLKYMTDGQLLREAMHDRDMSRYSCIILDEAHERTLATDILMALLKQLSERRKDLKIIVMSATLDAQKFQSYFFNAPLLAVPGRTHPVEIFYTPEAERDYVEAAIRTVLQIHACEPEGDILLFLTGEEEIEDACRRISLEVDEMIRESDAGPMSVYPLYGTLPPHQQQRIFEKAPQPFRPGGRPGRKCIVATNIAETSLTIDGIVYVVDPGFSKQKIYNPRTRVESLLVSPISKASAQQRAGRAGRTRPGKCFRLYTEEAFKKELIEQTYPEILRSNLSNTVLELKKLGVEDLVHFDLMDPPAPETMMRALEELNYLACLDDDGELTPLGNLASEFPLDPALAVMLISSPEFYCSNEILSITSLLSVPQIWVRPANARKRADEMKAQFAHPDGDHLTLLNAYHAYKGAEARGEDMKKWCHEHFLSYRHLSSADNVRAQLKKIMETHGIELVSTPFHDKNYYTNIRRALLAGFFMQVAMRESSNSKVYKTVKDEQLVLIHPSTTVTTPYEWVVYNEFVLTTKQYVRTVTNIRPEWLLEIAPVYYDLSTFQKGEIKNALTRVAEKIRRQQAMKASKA

Sequence of ctPrp43-HT (Hook-Turn mutant) (Chaetomium thermophilum? (G0RY84 entry or part of it R180G;F181G | mutant): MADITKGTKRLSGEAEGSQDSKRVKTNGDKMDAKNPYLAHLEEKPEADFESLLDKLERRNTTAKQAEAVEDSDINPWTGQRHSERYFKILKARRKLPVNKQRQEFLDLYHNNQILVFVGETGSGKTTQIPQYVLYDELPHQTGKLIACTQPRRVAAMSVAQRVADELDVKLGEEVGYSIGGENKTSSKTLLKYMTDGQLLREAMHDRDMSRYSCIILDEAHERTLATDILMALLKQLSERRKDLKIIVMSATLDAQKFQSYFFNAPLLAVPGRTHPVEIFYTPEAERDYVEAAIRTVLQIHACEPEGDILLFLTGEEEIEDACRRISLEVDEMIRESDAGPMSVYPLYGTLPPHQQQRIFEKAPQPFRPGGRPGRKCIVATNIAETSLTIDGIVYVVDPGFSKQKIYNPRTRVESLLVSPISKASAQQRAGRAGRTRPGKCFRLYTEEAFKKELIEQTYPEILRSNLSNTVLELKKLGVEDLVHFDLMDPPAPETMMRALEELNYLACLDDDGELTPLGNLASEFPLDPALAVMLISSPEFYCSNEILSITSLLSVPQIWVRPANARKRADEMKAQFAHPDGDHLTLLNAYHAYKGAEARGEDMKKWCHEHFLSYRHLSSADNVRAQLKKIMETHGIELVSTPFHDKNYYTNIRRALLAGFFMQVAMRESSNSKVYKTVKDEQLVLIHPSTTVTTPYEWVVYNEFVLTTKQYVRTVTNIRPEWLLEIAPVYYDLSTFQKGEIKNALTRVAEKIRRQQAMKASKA

B1: 5'-6FAM-U16-RNA (ssRNA)
RNA: UUUUUUUUUUUUUUUU
Kd [1]: 840 ± 50 nM
Kd (ctPrp43): 4980 ± 570 nM
